Test results from the DeepSol protein solubility set.

Test: soluble on expression in E. coli; label from the status in PepcDB or PDB records

Row | Sequence | soluble on expression in E. coli
1 | MGSDKIHHHHHHMRITEFYVSNFRSLSEVNLKDLGGFNIVVGYNGYGKTNLLSSIFLFVKNLSAGIEKRSIEDRNQEFILLWQGYDVSKPIMIGGKVEFSPEESNKIVGKNQKITLEIINKMRYNNKFVEWNLDTLYINGSPPGEDDLKVAKKLAEYASQAIEYVPIFDQTYFDETLKRMTEMNKSPINLRKYWYDFVNLVAATIPEVKGMEFWDGRRLVLNVYNLPIYIDLAASGFQRVILMLFIIWLSGNKILLIEEPEVNMHPTLQAKIMKLIKNWTDNNILQSFLTTHSPYIVEMAADSYVVMRRVNGNSTAITVKPTPDLRGTISLLNASLSNILFSRIIILTSELAEPSVIVNWLKRLNINVEDNGISIYKVSSDLELQHWLKLKNMLNLDVIFLGLCDKLDMSLKDYCVPLSREVENFYSKQALLEVLRRLGIYPDEKEIRDLGKEENLRWIINVLRKRGIEYEKLRMSIGELITDVDSIEIPKEIEILANKIKSLQATL | not soluble
2 | MGSDKIHHHHHHVKKLLNTLFINQSDSYLALDGGNVLVKADGQVLGRVPLHNLEGIVAFGYTGASPALMGHCAENGIALTFMTKNGRFLARVIGESRGNVVLRKTQYRRSDDEVASARLAKNFILGKLYNQKWMLERMTRDYPLRLDVERFKTTSQDMTETMREIQVCENLERLRGLEGTIAVRYNRLFDSMILQQKEDFHFKGRTRRPPLDRVNAMLSFAYSLLARDVSAALEAVGLDAYVGFLHRERPGRASLALDVMEELRGIYADRFVLSLINKKVIQGKDFLQKENGAVIMTEEGRKTFLTAWQKKKQETIQHPYLKEKMMWGLVPYEQALLLARHLRDDLEAYPPFLYK | not soluble
3 | MGSDKIHHHHHHMDINLRFFSRLNPWLNSLFTSKATLKTEIDEAQQGQMSLKTIANQYPLQARRGPITQVMLYQSLYASDDFVGREKQLNQITDVINQWRNHHGEISAIVSPAGSGGSSFLGQLPPLLQTIIADDAKKAPMPDVKPLPSKWLLMSFYQAPLGANGAIAHVCYCFGITPPNTITETIAAINQQPPQLIMIDDMHKLMLRMMGNNQALVTFATIVMETRKHHCWIMGCEIFAWQRLSAQYQIHHFIKHVFQLDYFSETELATIQTKHLLDLGLISNDVMAKETTTTPPNNTNKSTKEQTEQANIEQVDIVNPYKDQLKQLYTISQGHPKLASLLLQYSLAHQVDIGSDNSSNSRSNNGIDICRINSSVLQQCQDNDLFSVAEIYVHGGLRVSQHAHIFAITIEQSSLQLEYLARQGLIIAQYSQQDFAEHFYFITPTLSKIIANHLVNNNKLFN | not soluble
4 | MHYFSIHDQSGRHIGFFILLADDESEARPQSGRFAVKLEGGMENHVLSPFGQTEIPQYWRVVKDRIELFFDEAPVGTLRNEYLTVSGQTFVLNDLTGNM | not soluble
5 | PPLYVPEQLVVHKETHQAHVMIGSRGYNAYDDKRTALYLLNNILGGPGMNSRLNVSLRERRGLVYTVESNLTSYTDTGAFCIYFGTDPEDVDTCLKLTYKELKRMRDVKMTSSQLMAAKKQLIGQIGVASDNNENNALGMAKTFLHYNKYESSESVFRRIEALTAEGLLEVANEMFAEEYLSTLIYR | not soluble
6 | MRIALFTETFLPKIDGIVTRLCQTVRHLQRNGHQVLVVAPDGGLDHYEGARIYGVSGFPLPLYPELKLALPRPAIGKALAAFEPDLIHVANPAVLGLAGLYYAQKFQLPLVASYHTHLPQYLKYYGLGFLEELLWFLLRWGHNCAQLNLCTSTAMVAELKAHGIRHLDLWQRGVDVELFHPQRQSQEMRHFLSQGHPEAPLLLYVGRLSAEKEIEQIKPILEQIPQARLALVGNGPHREALEKHFAGTPTHFVGYLRGERLAGAFASADVFIFPSRTETLGLVLLEAMAAGCPVVAANSGGIPDIVTDGVNGFLFDPADPTGAITACQRLFDSPDDRETLRQNARQEAERWSWAAATQQLEQYYRSVLPVPQRDVALSHLEHHHHHH | not soluble
7 | MYVNKQEIIKNIQKLSPKSPAEYIEKDGCFMLTCPENTYPSFFSQFQYSEIPPPGNLIPQNALEISPPTSLEEMGGASLSEYFGIICDDGVWKLTKYPNGITFNKDPPSYTNGSLNGYKTEIFTMNCY | not soluble
8 | MKLATLKNNTRDGQLVVVNRALDKAVVVSHIAATLQAALDNWSEISPKLAEVYQSLNNNEITDTLVFEQAACESPLPRAYQWADGSAYVNHVELVRKARNAEMPATFWTDPLMYQGGSDAFIGPRDDISIASEEYGIDFESEVAVITDDVPMGISVEQAANHIKLLMLVNDVSLRNLIPGELAKGFGFFASKPSSAFSPVAVTPDELGDAWDGKKLHLPLTTHLNETLFGQPNCGVDMTFDFPTIVAHAAKTRPLSTGCVIGSGTISNYDRSVGSSCLAEIRMLEIIADGKPTTPFMSFGDTVRIEMFDNEGASIFGSIDQKVVEYKAQ | not soluble
9 | HHSVEAPQVKKRMGKFPFVKASKKESEEISKQLHNALDIELPSESTVWLRDKDVWLFPDALEPMIGELRFSRMGIKIAEAHKNGYRWQHQVATALATGAESNAIELTIEEAREWYMGRDVRPQIIPEGLKTGKGEVLVKYQGAIIGLGKWVSNRIKNGLPRELVRDKNLF | not soluble
10 | GPGSMETFRERTLANRYQPRQHLPPEFPGVLKEYAREVLREQPEDILQWSANYFKRLAREMDAKPAGEHRMTAPALPHLESRPNTREEEEEEYGERLQQYIDMFVEHDSENNGVLPVKAIKEALLKSYGLTLPQALYVLTATQLVEKEPVNYAEFACESFPALRFVWSTEHNFQVSNREDTTVHGLSRIDVQQEFLKLLRFADRSDTSLLSIDQYMDVLRCAPYHLTTRDLRILRVEAELNERHEVNYEEELLHIFDRLLLAEQFAQLDSDD | soluble
11 | MDDNQIINLFFQRNEDAINAVDEKYGSKLNALAANILQSREDGLECVNDMYMKAWNSIPPARPEYLFAFLATSARNIAIDMIRKNNAGKRQAKVVELTKELEECIGDGGLQTHLDKEDIGEMLSHFLETVDKNKRIIFLRRYWYSDSIKDISERMQMSESAVKVTLHRTRKELRKYLESEGLYL | not soluble
12 | SFNTYQHLLPETVRHLPDVKKQLAMVRPGLSMLSIFICLKGTKEDLKLQSTNYYVYFDTDMDKAMERYVSMPKEKAPEHIPLLFIAFPSSKDPTWEERFPDRSTMTALVPMAFEWFEEWQEEPKGKRGVDYETLKNAFVEASMSVIMKLFPQLEGKVESVTGGSPLTNQYYLAAPRGATYGADHDLARLHPHAMASIRAQTPIPNLYLTGQDIFTCGLMGALQGALLCSSAILKRNLYSDLQALGSKVKAQKKKM | soluble
13 | MKKWLLAAGLGLAMVTSAQAADKIAIVNMGNLFQQVAQKTGVSNTLENEFKGRAAELQKMETDLQSKMQRLQSMKAGSDRTKLEKDVMSQRQTFAQKAQAFEKDRARRSNEERNKLVTRIQTAVKKVANDQSIDLVVDANTVAYNSSDVKDITADVLKQVK | not soluble
14 | MKIKEVIVVEGKDDTAAIRRAVDADTIETNGAAVGADVIERIKLAKERRGVIIFTDPDFPGEKIRRTIAEQVPGCKHAFLPREAAKAKNGKGIGVEHASPDEIRRALANVYEEASDWKEEITFAELIEAGLIGGAMARRRRQRLGEELKIGYANGRQFHKRLQVFRISRDAFYAALAHVMQEEADDV | not soluble
15 | MNNISIPFEKLGNAKKVGIQLPDGLKRRAIEIAQLIEDRGYDVVISGETSFGACDIDLSILEVVDVLLHFAHTPILKDERVVYVPYFIEYNPKIDLKVDERRIALIATAQYVHKLPEVAEWLRGKGYEVEIGSPRGRVVYPGQVLGCNYSVLRGSNADAVVFIGDGLFHATGAAMYTKKKVYAYNPLSGELKEVDARNFEKKRYLEVSKCVGKSKAGILVSSKPGQRRLRLAEKLKKIGRENGLFCSIIYLNNVRAEELYNLPFDFYVNTACPRIAYDDGARFEKPVISPQEFELLLGLRESIAMDEIEF | not soluble
16 | MGSDKIHHHHHHMTVTDLSKKPLLLLDHVTMQFGGLVAVDDFTNEIREGELVGLIGPNGAGKTTVFNVITGIYTPTKGRIVFNDIDITGLRPYQITHLGIARTFQNIRLFSDMTVLENVLVAQHHVLSNPDADRILVKHGKPRKGHGRFWFWRAVTKIGYLKKEKEMVERAKDLIKRVGLEKVMYEKASSLPYGEQRKLEIARALATEPKLILLDEPAAGMNPKETEDLMEFIKQIRKDFNLTVLLIEHDMKVVMGICERIIVMDYGRIIAEGTPKEIQNDPRVIEAYLGREWESV | not soluble
17 | MSLVTIKDIARNLGISYSTVSRCLNNNPNVSEKTKKKVVEEANRLGFHFNVNARNLAKKETNRIGVIFSNNFNHQDTRKFFSDIMDSSINSIETNKYDFIIQPNNNISGDSNVYKMVNGQMVDGLVIVSQSIKKEEYDFLKDNNFPHVFIYFKPSFIGEVDNFFWDDNVYGGYIATKHLIDHGHKDIITVTSDDKSSKMHEDRTKGYLNAMEEANLKTEVIKSKMDFESQVEFLEKYIDKIKKASAIFVQQDVPAISIIQELKTTYGINVPEDISIIGYNNIELISYFRSHLSTIDDPREQVIKNGVDSLVNIINKKSTEHIPRKLYPRLIIRNSVKRIKEGHHHHHH | soluble
18 | MDLFDLIFPPPPQSPSKLHPTQNHILPPEPLNRDFGDTRKNHKKAQPRRTTKAPSTSSPTIHDRQTPPRPTTPKSPTEKLLPIYHKFADGTEVVNPAAYAQRGFGWVKQNNTARVSWAKWAQSTKKCDDDIYGLKWIEERYPNWRDSNFRIRERRRSRSRSPQLSDNGSEDISIYLGRANSSSPNPTATGSETSYGSPTDAIYIPRNY | not soluble
19 | MSLESMLSHPPIPIADMAEHTERLKANDSLKLSQEYESIDPGQQFTWEHSNLEVNKPKNRYANVIAYDHSRVILQPIEGIMGSDYINANYVDGYRRQNAYIATQGPLPETFGDFWRMVWEQRSATIVMMTRLEEKSRIKCDQYWPNRGTETYGFIQVTLLDTIELATFCVRTFSLHKNGSSEKREVRQFQFTAWPDHGVPEYPTPFLAFLRRVKTCNPPDAGPIVVHCSAGVGRTGCFIVIDAMLERIKPEKTVDVYGHVTLMRSQRNYMVQTEDQYSFIHEALLEAVGCGNTEVPARSLYAYIQKLAQVEPGEHVTGMELEFKRLANSKAHTSRFISANLPCNKFKNRLVNIMPYESTRVCLQPIRGVEGSDYINASFIDGYRQQKAYIATQGPLAETTEDFWRMLWENNSTIVVMLTKLREMGREKCHQYWPAERSARYQYFVVDPMAEYNMPQYILREFKVTDARDGQSRTVRQFQFTDWPEQGVPKSGEGFIDFIGQVHKTKEQFGQDGPISVHCSAGVGRTGVFITLSIVLERMRYEGVVDIFQTVKMLRTQRPAMVQTEDEYQFCYQAALEYLGSFDHYATEGHHHHHH | soluble
20 | MKTDRLLADTKTIRYEETDLASLISAPYHFRCGIYLICTQGEAVVSTGVQKYIFNEQTELIFLTGGLLQVLETSGDLQVKMLMFPKEAFLNAMLPIDTPYFNYTHEHPCYHHTADERSQKTWRQINLWMDMAQMLFTEPMPQFRGQQEHNFLQSLLMWLFNTIPEKLAVSKQYSRTQLLCHRFMQLIREYSMHEHQVAFYAEKLCISSRYLHKITVRHLDGKKPKQLIDEQLVAEIKVLLNEPRLSVTEIAEQLHFPDQSYLTHFFKKNTGISPKEFRAIKNLG | not soluble
21 | MARALADLSVNLQVPRVVPSPDSDSDTDLEDPSPRRSAGGLHRSQVIHSGHFMVSSPHSDSLTRRRDQEGPVGLADFGPRSIDPTLTHLFECLSLAYSGKLVSPKWKNFKGLKLLCRDKIRLNNAIWRAWYIQYVQRRKSPVCGFVTPLQGSEADEHRKPEAVILEGNYWKRRIEVVMREYHKWRIYYKKRVSGTDTCRPWVLRVLEGIARPHPNPYL | soluble
